Experimental data from the DeepSol protein solubility set.

Experiment: soluble on expression in E. coli; label from the status in PepcDB or PDB records

Sequence	soluble on expression in E. coli
MAQNNENALPDITKSITLEAPIQKVWETVSTSEGIAKWFMPNDFQLKEGQEFHLQSPFGPSPCKVLAVQAPTELSFEWDTEGWVVTFQLEDLGEKTGFTLIHSGWKEPNEVIGKANEKSSVVRGKMDGGWTGIVNERLRKAVEE	not soluble
MAQPQLYLPEPFKIAYRKVGQCRRFQQLKKKNGSFKRKGIERWHRAVSTNLLKQNVLVPKEESSSDSDMGFHESQQNQKSNLKTKVKTAFGRMLSYKYRSKPACASQEGSTDHKEALLSNTQSLLPRIVKEFSSPKLFTAKMRKLSENATIQLDVVEAETEEITQGNTLLRARRTTKRLSVTSLPSGLQKGPYSPKKRPHFPALKKKKRGMENILRKSDLTVGKLQMQVDDLIETVTDKSMKLLAQRHAELQQCEFLGDEILQSSKQFQRISKRTMRKYKLKNMTTKGPGDS	soluble
MARESVKILQGKLDVESLISQLNAALSEEWLAYYQYWVGALVVEGAMRADVQGEFEEHAEEERRHAQLLADRIIELEGVPVLDPKKWFELARCKYDAPQGFDSVSLLKDNVASERCAILRYQEIADFTNGKDFTTCDIAKHILAEEEEHEQDLQDYLTDIARMKKSFLDK	not soluble
MARFLLIIGCATLAALASCESKSGEETPQYWRAILGDICQLPSFPRATGDPTRYVECVRQSSFAADRKDLGIWLLRECLPGYEFVASARRCKTVRSVNKQQELCESANATEYNFCPTASAMQFLVEETREAPRQCACPNGEQNCVCPSPEILEPISAVKKVRRSAQQQPLRFSQYPSCPCPQNQPACTCSTNNQQNEQILVSISCCQQQETTTQAPVQMQPCQCTPTQIQQNCQTTTTQQQYCPQQSAPVVQPQPCPLVQGSGVQNAQYQGICSWMIDPLATDPQSRTHYLQCQPAPNNLFCGRWQRMPCAPGTVFDVQSQVCVWDTNSQPGTLPTPAPYVSTQAPQNAQCGCTGGVQIGSCNQNYQCPGQSVCQVGQNAGQQCMVCCYFRKKARRF	not soluble
MARKTTVAKVGSKGPGSTKKTIQAVRPTVRTQGAVTRSQAALRGHMGITDSSTSTSSSRIPKEKLKKKASSRSRSRSRSKSTRRSRSKSTRSRSRSRSRSRSSTRGKKRAPKKAVTTKAARSISPVKVKKTEAIKSRGSSKTARRVSAAHK	not soluble
MARVLVVDDAAFMRMLLKKILTQAGHEVVGEASNGKEAVEKYKQLKPDLVTMDIVMPEMDGITAVKEIMKIDPNAKIIMITAVGQEAKVMEALKSGAKGYIVKPFQAQKVIEEVNRVLSS	soluble
MARYSLHAGHNSIVQGANYGNRKEHIMDRQVKDAVVAKLRALGHTVYDDTDEVGTTQAQNLNNIVSKTNSHDVDLVVSFHLNSYDTRANGVEVLYYDQQALSAKIAAQLSKDIGWSNRGAKERKDLYVLSNTKAPAILIELGFIDNEADMAKWNPDKIANSIVYALTGQSGGTTPPSKQNIIQSGAFSPYETPDVMGALTSLKMTANFILQSDGLTYFISEPTSDAQLKGMTDYLDRRGWWYEVK	not soluble
MASAIGKNFQSGARECSTFEKIKTELSAAGLSSGAIDGILKIAATYKPKEGEKPDLAQAMVTIGKLFAELETFIKTQPESDQTIYHAIIEKKKAELVAHGIKF	not soluble
MASEALHQVGDGEEAVLKKENFNMMNALDQLPKPFPNPKSMNRTVTTKGLPLASKGNLVNFLEDDTINLLKPLPVEDSDCSSDETSISAFSSTLLNPIKLAVTQPNSSFFAGMLEGELNKLSFSPMAKNAENEDLALGPCPCPSKSQMATRGLLDLDNPELETETSSTHSESSVVVDLPDTPFIFEHTVNNSTAVISWTYALGKQPVSFYQLLLQEVAKTQENELPEAKNRPWIFNKILGTTVKLMELKPNTCYCLSVRAANTAGVGKWCKPYKFATLATDFSSFPENYPIQITVRRKEPRQKIVSIGPEEMRRLEDLEYLFPC	soluble
MASESSIDEKKKKAQVTQSNINKNTPQQLTDKDLFGNETTLAVSEEDIQAALDGDEFRVPLNSPVILVQSGNRAPETIMQEEMRKYYTVSTFSGIPDRQKPLTCNKNKDKNENEDVASAENMNWMQALRFVAAKGHQKAIIVYQDMLQTGKYDSALKSTVWSDYKNDKLTDAISLRYLVRFTLVDVATGEWATWSPVNYEYKVLPPLPDKNEASTTDMTEQQIMQLKQKTYKAMVKDLVNRYQLEHHHHHH	not soluble
MASFITRAERSGNIFSRVTGLIRAGQLNWADRPLWYDVYVSSPPLTPPDWNVKLAKYDEPIRSIFYEEDVLRAKFYKTYRSTAGIQVDSSRTSVSQQFINEYKLVKSENAEATDDQLFEMTQKRLNENGIVLK	not soluble
